T1: recombinant human CTLA4-Fc (Sino Biological, 11159-H03H) (human, UniProt P16410 37-162)
T1 construct: bought; whole entry named; Biotinylated in the yeast display assays; also called human CTLA4 fused with human FC fragment; biotinylated CTLA4-Fc; not shown: human Fc fragment
T1 sequence (looked up): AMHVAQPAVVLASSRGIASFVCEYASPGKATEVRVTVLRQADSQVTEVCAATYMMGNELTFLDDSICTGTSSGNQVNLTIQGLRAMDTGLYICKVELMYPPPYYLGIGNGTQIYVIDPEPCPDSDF


Columns and labels:
[1] = target: T1, recombinant human CTLA4-Fc (Sino …); assay: ELISA, coated human CTLA4-Fc
Protocol: (§1) Plates were blocked with PBS supplemented with 3% non-fat milk at 37° C. for 1 hour. After washing, 100 μL of 3-fold serial dilutions of antibodies were added to each well. After incubation at 37° C. for 1 hour, plates were washed four times, and […] conjugated anti-human IgG (Fab specific) (1:6000 dilution) was added to each well. Plates were incubated at 37° C. for 1 hour, washed four times, and then 50 μL TMB substrate solution was added to each well, and the plate was incubated at room temperature. […] The EC₅₀ was evaluated by fitting the ELISA data using the asymmetrical sigmoidal (five-parameter logistic equation) model of GraphPad Prism 6 software.
The purified activatable antibodies were treated with the proteases which recognize the cleavage sequences, and were then tested to determine whether removal of the masking peptide restored their activity.

[2] = target: T1, recombinant human CTLA4-Fc (Sino …); assay: ELISA, coated human CTLA4-Fc, batch 1
Protocol: as §1

[3] = target: T1, recombinant human CTLA4-Fc (Sino …); assay: ELISA, coated human CTLA4-Fc, batch 2
Protocol: as §1

[4] = target: T1, recombinant human CTLA4-Fc (Sino …); assay: ELISA, coated human CTLA4-Fc, batch 1; Data Batch 1
Protocol: as §1

[5] = target: T1, recombinant human CTLA4-Fc (Sino …); assay: ELISA, coated human CTLA4-Fc (as Example 8)
Protocol: as §1

[6] = target: T1, recombinant human CTLA4-Fc (Sino …); assay: ELISA, coated human CTLA4-Fc (as Example 8); remark: listed apart in the source
Protocol: as §1

[7] = target: T1, recombinant human CTLA4-Fc (Sino …); assay: ELISA, coated human CTLA4-Fc (as Example 8); remark: listed apart in the source
Protocol: as §1

| LogEC50 [1] | EC50 [2] | LogEC50 [2] | EC50 [3] | LogEC50 [3] | EC50 [4] | EC50 [5] | EC50 [6] | EC50 [7] | Binder |
| --- | --- | --- | --- | --- | --- | --- | --- | --- | --- |
| -7.01 log M | 178 nM | -6.75 log M | 128 nM | -6.89 log M | 178 nM | – | – | – | TY22404 (antibody, IgG1, V domains shown, also called masking peptide B13197) VH: EVQLVESGGGLVQPGGSLRLSCAASGYSISSGYHWSWIRQAPGKGLEWLARIDWDDDKYYSTSLKSRLTISRDNSKNTLYLQLNSLRAEDTAVYYCARSYVYFDYWGQGTLVTVSS VL: EVGSYPNPSSDCVPYYYACAYSGRSAGGGGSPLGLAGSGGSDIQLTQSPSSLSASVGDRVTITCRASQSVRGRFLAWYQQKPGKAPKLLIYDASNRATGIPSRFSGSGSGTDFTLTISSLQPEDFATYYCQQSSSWPPTFGQGTKVEIKR |
| – | – | – | – | – | – | 68.4 nM | 122 nM | 117 nM | TY22404 (peptide as listed in Tables 26 and 29) (antibody, V domains shown, kept apart from m68) VH: EVQLVESGGGLVQPGGSLRLSCAASGYSISSGYHWSWIRQAPGKGLEWLARIDWDDDKYYSTSLKSRLTISRDNSKNTLYLQLNSLRAEDTAVYYCARSYVYFDYWGQGTLVTVSS VL: EVGSYPNPSSDCVPYYYACAYSGRSAGGGGTPLGLAGSGGSDIQLTQSPSSLSASVGDRVTITCRASQSVRGRFLAWYQQKPGKAPKLLIYDASNRATGIPSRFSGSGSGTDFTLTISSLQPEDFATYYCQQSSSWPPTFGQGTKVEIKR |
